Source: the supplement of paper PMC10567573

B1: C9orf25 (parent)
chain: LARKGSLKNGSMGSPVNQQPKKNN
B2: IKZF1 (parent)
chain: HIKLHSGEKPFKCHLCNYACRRRD

Variants of: B1
Assay: protein stability index of a GFP-peptide fusion (GPS, HEK-293T) (PSI 1-6); higher = more stable
Conditions: c terminus: a fixed tail appended
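Note: lentivirally expressed fusions sorted by FACS into six bins by GFP to DsRed ratio, PSI derived from sequencing read proportions per bin multiplied by bin number.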

Variant | protein stability index
L7I | 4.56
L7S | 4.83
L7G | 4.57
L7R | 4.14
L7N | 4.55
L7W | 3.97
L7D | 4.01
L7F | 4.2
L7Q | 5.04
L7T | 4.71
L7E | 3.63
L7M | 4.66
L7Y | 4.17
L7K | 5.32
L7H | 4.76
L7P | 4.71
L7A | 4.51
L7V | 3.39
L7C | 5.02
G5Q | 4.6
G5C | 4.29
G5E | 4.82
G5Y | 3.27
G5F | 4
G5W | 4.06

Variant | protein stability index
G5I | 3.99
G5K | 5.05
G5T | 4.53
G5D | 4.58
G5M | 4.06
G5H | 4.49
G5V | 4.26
G5P | 4.48
G5L | 3.55
G5S | 4.8
G5A | 4.5
G5R | 4.34
G5N | 4.07
M12H | 4.42
M12P | 4.84
M12I | 4.42
M12N | 4.43
M12E | 5.29
M12L | 4.44
M12A | 4.42
M12D | 5.06
M12K | 5.15
M12C | 4.58
M12F | 4.56
M12G | 4.49

Variant | protein stability index
A2P | 5.21
A2M | 4.9
A2T | 4.54
A2W | 4.03
A2I | 4.37
A2V | 4.07
A2G | 4.76
A2E | 5.09
A2C | 4.12
A2Q | 4.63
A2R | 3.68
A2F | 4.04
A2Y | 4.24
A2L | 4.58
A2K | 4.13
A2S | 4.72
A2H | 4.77
A2N | 4.59
A2D | 4.87
L1A | 5.34
L1T | 4.31
L1E | 5.35
L1S | 5.53
L1Y | 3.77
L1C | 4.32

Variant | protein stability index
L1R | 4.81
L1Q | 4.85
L1K | 4.76
L1V | 4.92
L1P | 4.76
L1G | 5.15
L1I | 4.66
L1W | 4.3
L1H | 4.95
L1F | 3.96
L1D | 5.07
L1N | 5.07
L1M | 4.89
S6F | 4.36
S6Y | 4.89
S6C | 4.05
S6V | 4.29
S6P | 4.59
S6M | 4.38
S6H | 4.43
S6T | 4.76
S6N | 4.69
S6G | 4.64
S6A | 4.33
S6L | 4.12

Variant | protein stability index
S6D | 5.1
S6Q | 4.76
S6I | 4.72
S6K | 4.37
S6E | 5.15
S6W | 4.23
S6R | 3.99
G10K | 4.35
G10H | 4.67
G10A | 4.83
G10S | 4.14
G10D | 4.61
G10Y | 4.35
G10C | 4.33
G10R | 4.12
G10N | 4.99
G10Q | 4.34
G10T | 4.81
G10E | 5.04
G10W | 3.89
G10L | 4.65
G10M | 4.85
G10I | 4.76
G10F | 4.25
G10P | 4.86

Variant | protein stability index
G10V | 4
K4L | 4.23
K4W | 4.15
K4T | 5
K4H | 4.68
K4R | 3.74
K4N | 4.25
K4D | 4.88
K4P | 4.92
K4V | 4.42
K4S | 4.68
K4Y | 4.13
K4A | 4.74
K4E | 4.91
K4C | 4.74
K4F | 5.08
K4G | 5.17
K4I | 3.71
K4M | 4.62
K4Q | 3.95
K8S | 4.73
K8T | 4.53
K8R | 4.57
K8W | 4.1
K8F | 4.42

Variant | protein stability index
K8H | 4.7
K8I | 4.76
K8P | 4.71
K8Y | 4.11
K8V | 4.43
K8M | 4.45
K8D | 4.2
K8L | 4.12
K8A | 4.55
K8G | 5
K8E | 4.29
K8Q | 4.84
K8C | 4.32
K8N | 5.17
N9H | 4.63
N9F | 4.21
N9W | 3.21
N9L | 3.67
N9G | 4.74
N9Y | 4.64
N9R | 4.43
N9E | 5.29
N9V | 4.42
N9Q | 4.92
N9K | 4.17

Variant | protein stability index
N9P | 4.36
N9D | 5.27
N9I | 4.64
N9M | 4.18
N9T | 4.78
N9C | 4.46
N9S | 4.94
N9A | 4.6
R3I | 4.58
R3H | 4.85
R3N | 4.96
R3V | 4.85
R3E | 4.69
R3C | 4.85
R3S | 4.67
R3L | 4.41
R3Y | 4.73
R3Q | 4.99
R3A | 5.05
R3W | 4.14
R3T | 4.85
R3K | 4.33
R3G | 5.02
R3F | 4.54
R3M | 4.85

Variant | protein stability index
R3D | 5.2
R3P | 5.03
S11W | 4.45
S11L | 4.19
S11P | 4.67
S11E | 4.96
S11A | 4.44
S11C | 4.5
S11H | 4.15
S11Q | 4.29
S11M | 4.22
S11N | 4.88
S11F | 4.15
S11Y | 4.35
S11T | 4.81
S11G | 5.27
S11D | 4.8
S11R | 4.61
S11K | 4.7
S11V | 4.71
S11I | 4.41

Variants of: B2
Assay: as above
Conditions: c terminus: a fixed tail appended

Variant | protein stability index
N17G | 2.05
N17D | 1.47
K9C | 2.79
K9P | 1.9
K9D | 2.8
D24H | 2.06
D24L | 2.01
R22I | 1.7
R22H | 2.71
R22V | 1.91
R22A | 1.68
E8N | 1.25
E8Y | 2.06
E8D | 1.72
Y18I | 1.48
Y18L | 2.23
Y18G | 2.84
Y18T | 1.54
Y18R | 2.15
Y18K | 1.99
G7F | 2.21
G7S | 1.63
G7R | 2.08

Variant | protein stability index
G7Y | 2.25
G7T | 1.15
G7K | 2.47
G7A | 2.2
G7D | 2.25
G7Q | 2.16
G7M | 1.78
G7I | 1.68
P10T | 1.84
P10A | 1.55
P10K | 2.73
H14L | 1.88
H14S | 2.09
R21Q | 1.15
R21F | 2.22
R21S | 1.99
R21A | 3.46
R21D | 1.29
R21L | 1.59
R21G | 2.41
H5I | 2.57
H5R | 1.55
H5A | 3.14

Variant | protein stability index
H5S | 1.18
H5M | 2.06
C13Y | 1.77
C13W | 2.73
C13Q | 2.75
C13G | 3.04
L4F | 1.92
L4Y | 2.52
L4P | 2.19
L4M | 1.58
C16G | 3.03
C16V | 1.81
C16S | 2.96
C16W | 2.14
C16Y | 1.88
C16I | 2.35
C16T | 2.8
L15C | 2.66
L15K | 2.68
L15N | 2.27
I2D | 2.5
I2N | 2.14
I2C | 2.44

Variant | protein stability index
I2E | 1.78
I2M | 2.6
I2H | 2.3
A19F | 2.07
A19R | 2.62
A19E | 2.1
A19M | 1.88
A19T | 1.81
A19P | 1.71
A19Y | 1.32
K12Q | 2.28
K12Y | 2.13
K12I | 1.78
K12F | 2.25
K12N | 1.67
K12V | 2.21
K12G | 2.38
H1V | 1.72
H1W | 1.93
H1F | 2.4
H1G | 2
R23Y | 1.72
R23G | 2.04

Variant | protein stability index
R23K | 2.26
R23N | 1.63
R23L | 1.44
F11C | 1.83
F11E | 2.17
F11Q | 2.41
F11P | 1.67
F11R | 1.74
F11Y | 1.52
K3T | 1.9
K3F | 2.38
K3C | 2.56
K3I | 1.61
K3H | 2.44
S6I | 2.38
S6A | 1.65
C20G | 1.96
C20Q | 2.39
C20N | 2.35
C20D | 1.59
C20W | 2.83
